US20250026813A1 (published 2025)
Residue numbers refer to the chain shown, from its start.

How the values were obtained:
[1] = target: SARS-CoV-2 spike protein bearing furin mutation and truncation in retention sequence (on pseudoviral envelope) (SARS-CoV-2, UniProt P0DTC2 14-1273); test: cell-based or functional assay
[2] = target: SARS-CoV-2 spike protein bearing furin mutation and truncation in retention sequence, on pseudoviral particles (SARS-CoV-2, UniProt P0DTC2 14-1255); test: cell-based or functional assay

B1: YANG-2102 (antibody, V domains shown)
VH: EVKLVESGGGLVQRGGSLRLSCAASGFTFSSHAMYWVRQIPGKGLEWVAGIGVAGDTFYPDSVKGRFTISRENANNSLSLQMDSLRTGDTAIYYCVRDGYSGSYPYHYYGMDVWGQGITVVVSS
VL: DIQLTQSPSSLSASVGDSVTITCRASQGIDTYLAWFQQKPGKAPKSLIYVASSLQSGVPSKFSGSGSGTDFTLTISSLLPEDFATYYCQQYKSYPWTFGQGTKVEIK
PV neutralization % (Ab 1 ug/mL) [1]: 99.4%

B2: YANG-2104 (antibody, V domains shown)
VH: EVKLVESGGGLVQPGGSLRLSCAASGFTFSSHAMYWVRQSPGKGLEWVSGIGVAGDTFYVDSVKGRFTISRENARNSLSLQMNSLRAGDTAVYYCARDGYSGTHPYHFYGMDVWGQGITVVVSS
VL: B1 VL with L4M, G28D, D30N
PV neutralization % (Ab 1 ug/mL) [1]: 99.3%

B3: YANG-2111 (antibody, V domains shown)
VH: GVQLVESGGGLVQPGRSLRLSCAASGFTFDDYALHWVRQVPGKGLEWVSSISWNSDDLGYADSVEGRFTISRDNAKNSLYLQMSSLRTEDTALYYCVKDTRAHYDILAGYRGLDSWGQGTLVTVSS
VL: DIVMTQSPLSLPVTPGEPASISCRSTQSLLHSNGYNFLDWYLQKPGQSPQLLIYLGSNRASGVPDRFSGSGSGTDFSLKISRVEAEDIGIYYCIQGLQTPITFGQGTRLEIK
PV neutralisation IC50 [1]: 1.33 nM
PV neutralization % (Ab 1 ug/mL) [1]: 86.8%

B4: YANG-1103 (antibody, V domains shown)
VH: EVQMVESGGGLIQPGGSLRLSCAASGLTVSSNYMSWVRQAPGKGLEWVSVIYSGGSTFYADSVKDRFTISRDNSKNTLYLQMNSLRAEDTAVYYCARENWNYVFDCWGQGTLVTVSS
VL: DIQLTQSPSFLSASVGDRVTITCWASQGISSYLAWYQQKPGKAPKLLIYAASTLQSGVPSRFSGSGSGTEFTLTISSLQPEDFATYYCQQLNSHPIIFGQGTRLEIK
PV neutralisation IC50 [2]: 0.28 nM
PV neutralization % (Ab 1 ug/mL) [2]: 100%

B5: YANG-1105 (antibody, V domains shown)
VH: EVQVVESGGGLIQPGGSLRLSCAASGITVSRNYMNWVRQAPGKGLEWVSVIYSGGSTFYADSVKGRFTISRDNSKNTLYLQMNSLRADDTGVYYCAREGYGMDVWGQGTTVTVSS
VL: B4 VL with A50S, S76N, I96C, I97S, R103K
PV neutralization % (Ab 1 ug/mL) [2]: 97.2%

B6: YANG-1107 (antibody, V domains shown)
VH: B4 VH with P14S, T28S, S49A, T57I
VL: B4 VL with S31T, N92S
PV neutralization % (Ab 1 ug/mL) [2]: 99.2%

B7: YANG-2105 (antibody, V domains shown)
VH: EVQLVESGGGLIQPGGSLRLSCAASGLTVSSNYMNWVRQAPGKGLEWVSVIYSGGSTFYTDSVKGRFTISRDNSKNTLNLQMNSLRAEDTAVYYCARDLGIRGGMDVWGQGTTVTVSS
VL: DIQLIQSPSFLSASVGDRVTITCWASQGISSYLAWYQQKPGKAPNLLIYAASTLQSGVPSRFSGSGSGTEFTLTISSLQPEDFATYYCQQLDGSLTFGGGTKVEIK
PV neutralization % (Ab 1 ug/mL) [1]: 99.6%

B8: YANG-2110 (antibody, V domains shown)
VH: EVQLVESGGGLIQPGGSLRLSCAASGFIVSRNYMSWVRQAPGKGLDWVSVIYSGGSTYYADSVKGRFTISRDNSKNTLYLQMNSLRAEDTAVYYCARSIAVAGEGLDSWGQGTLVTVSS
VL: EIVMTQSPATLSLSPGDRATLSCRASQSVSNIFISWYQQKPGQAPRLLIYGASIRATDIPARFSGSGSGTDFTLTISSLQPEDFAIYFCQQDYNLPLTFGGGTKVEIK
PV neutralization % (Ab 1 ug/mL) [1]: 99.9%

B9: YANG-2103 (antibody, V domains shown)
VH: EAQLVESGGGLIQSGGSLRLSCIASGLTVNSNYMNWVRQAPGKGLEWVSVIYSGGTTFYADSVKGRFTISRDNSKNTLYLQMTSLRAEDTAVYYCAREGYGMDVWGQGTTVTVSS
VL: SYVLTQPPSVSVAPGKTARINCGGNNFGSKSVHWYQQKPGQAPVLVIYYDSDRPSGIPERFSGSNSGNTATLTISRVEAGDEADYYCQVWDNSSDHFVFGAGTKVTVL
PV neutralization % (Ab 1 ug/mL) [1]: 97.7%

B10: YANG-2201 (antibody, V domains shown)
VH: QEQLVESGGGVVQPGMSLRLSCAASGFTFSNYGMHWVRQSPGKGLEWVTFISYDGNNEYYVDSVKGRFTISRDNSKNTLFLQMNSLRAEDAAVYYCAKDRALNLYYFDSWGPGTLVTVSS
VL: DIVMTQPPLSLPVTPGEPASISCRSSQSLLHNNAYNHLNWYLQKPGQSPQFLIYLGSNRASGVPDRFSGSGSGTDFTLKISRVEAEDVGVYYCMQSLQIPITFGQGTRLEIK
PV neutralization % (Ab 1 ug/mL) [1]: 35.2%

B11: YANG-1102 (antibody, V domains shown)
VH: QVQLQESGPGLVKPSGTLSLTCAVSGGSISTTNWWSWVRQSPGRGLEWIGEIFHIGYTNYNPSLKSRVTISVDKSKNQFSLKLNSVTVADTAVYYCARRVVMDTAMAHFDCWGQGTLVTVSS
VL: QSVLTQPPSVSGAPGQRVTISCTGSSSNIGAGYDVHWYQHLPGTAPKLLIYININRPSGVPDRFSGSKSGTSASLVIAGLQAEDGADYYCQSYDSSLSGWVFGGGTRLTVL
PV neutralisation IC50 [2]: 0.84 nM
PV neutralization % (Ab 1 ug/mL) [2]: 86.9%

B12: YANG-2107 (antibody, V domains shown)
VH: QVQLQESGPGLVKPSGTLSLTCAVSGGSIRSSNWWIWVRQSPGKGLEWIGEIYHGGNTNYNPSLKSRVTLSVDKSKNQFSLKLSSVTAADTAVYYCARALYDIGGVFDIWGQGTMVTVSS
VL: QSALTQPASVSGSPGQSISISCTGTSSDIGGYNYVSWYQQHPGKAPKLMIYDVSERPSGVSNRFSGSKSGNTASLTISGLQAEDEGDYYCCSYAANSNVVFGGGTKLSVL
PV neutralisation IC50 [1]: 0.3 nM
PV neutralization % (Ab 1 ug/mL) [1]: 61.2%

B13: YANG-2108 (antibody, V domains shown)
VH: B12 VH with L11Q, S41P, N61S, T69S, L70I, Q78H, K82N, S84T, I103V
VL: B12 VL with S19T, T25S, I29V
PV neutralisation IC50 [1]: 0.27 nM
PV neutralization % (Ab 1 ug/mL) [1]: 81.8%

B14: YANG-2106 (antibody, V domains shown)
VH: QVQVVESGGGVVQPGRSLRLSCSASGFTFSTYGMHWVRQAPGKGLEWVAVIWYDGSNKYYADSVKGRFIISRDNSKNTLYLQMSSLRPDDTAVYYCVREGVADGMGVWGQGTTVTVSS
VL: NIQMTQSPSAMSASVGDRVTITCRARQDISTYLAWFQQKPGKVPKHLIYAASTLLSGVPSRFGGSGSGTEFTLTITSLQPEDFATYYCLHHNNYPWTFGQGTKVEIK
PV neutralization % (Ab 1 ug/mL) [1]: 93.3%

B15: YANG-2112 (antibody, V domains shown)
VH: QVQLVQSGAEVKKPGASVKVSCKVSGFTLTHLSIHWVRQAPGRGLEWMGGFDPVDGQTVYAQNFQGRVTMTEDTSTDTANMDLNNLKSEDTAVYYCATGVVVPAAPYYYSSGMDVWGQGTTVTVSS
VL: QSVLTQPPSTSGTPGQRVTISCSGSSSNIAKNYVYWYQQLPGTAPKLLIYRTNQRPSGVPDRFSGSRSGTSASLAISGLRSEDEATYYCATWDDTLSVIFGGGTNLTVL
PV neutralisation IC50 [1]: 0.65 nM
PV neutralization % (Ab 1 ug/mL) [1]: 88.6%

B16: YANG-2109 (antibody, V domains shown)
VH: QVQLVQSGAEVKKPGSSVKVSCKASGGTFSGYTISWIRQAPGQGLEWMGGIIPSFGSLNYGQKFQDRVSITTDELKSTVYMELSSLNSEDTAIYYCTRESITSGYYYGMAVWGQGTTVTVSS
VL: DIQMTQSPSSLSASVGDRVTITCRASQGIRDDLGWFQQKPGKAPKRLISAASSLQSGVPSRFSGSGSGTEFTLTISSLQPEDFATYYCLQHNSYPLTFGGGTKVEIR
PV neutralisation IC50 [1]: 0.5 nM
PV neutralization % (Ab 1 ug/mL) [1]: 95%

B17: YANG-2203 (antibody, V domains shown)
VH: QVQLVQSGAEVKQPGASVKVSCRASGYALTSFYVHWVRQAPGQGLEWMGIIKPSGGDTIYAQNLQGRVTMTRDTSTNTFYVELSSLRSEDTALYYCAISGNTRAFEIWGQGTMVTVSL
VL: QSVLTQPPSVSAAPGQKVTISCSGSSSNIGNNFVSWYQQLPGMVPKLLIYANNKRPSGIPDRFSGSRSGTSATLGITGLQTGDEADYYCGTWDSSRSAVLFGGGTKMTVL
PV neutralisation IC50 [1]: 5.45 nM
PV neutralization % (Ab 1 ug/mL) [1]: 35.7%

B18: YANG-2204 (antibody, V domains shown)
VH: QMQLVQSGAEVKKPGASVKFSCKTSGYTFTNYYMVWVRQAPGQGLEWMGIIKPSGGNTIYAQKFQGRVTMTRDTSTNTVYMDLTSLRSEDTAVYYCARTGDRAFDVWGQGTMVTVSS
VL: B17 VL with F33Y, M43T, V44A, A51D, R67K, R96L, S97G, V99G, L100V, M107L
PV neutralisation IC50 [1]: 3.3 nM
PV neutralization % (Ab 1 ug/mL) [1]: 41%

B19: YANG-2202 (antibody, V domains shown)
VH: EVQLVESGGGLVQPGGSLRLSCAASGFTFSSFAMSWVRQAPGKGLEWVAAFSGRGAITHYTDSVKGRFTISRDNSKNTLYLQMNSLRAEDTAVYYCATYNWNPYYFDFWGQGTLVTVSS
VL: DIQMTQSPSSVSASIGDRVTITCRASQDINIWLAWYQQKPGKAPNLLIFDTSNLQSGVPSRFSGSGSGSDFTLTISSLQPEDFATYYCQQGNSFPRTFGQGTRLEIK
PV neutralization % (Ab 1 ug/mL) [1]: 37.5%

B20: YANG-2101 (antibody, V domains shown)
VH: EVQLVESGGGLVQPGGSLRLSCAASGFTFSLYDMHWVRQATGKGLEWVAGVGIAGDTIYPDSVKGRFTISRENAKNSFFLQMNRLRAGDTAVYYCVRGGTGTTFFDYWGQGVLVTVSS
VL: DIQMTQSPSSLSASVGDRVTVTCRASQDITNYLAWFQQKPGKAPKSLIYSASSLQGGTPSKFSGSGSGTEFTLTISSLQPEDFATYYCQQYNSFPLTFGGGTKVEIK
PV neutralization % (Ab 1 ug/mL) [1]: 100%

B21: YANG-1101 (antibody, V domains shown)
VH: QLQLQESGPGLVKPSETLSLTCTVSGGSISSSSYYWGWIRQPPGKGLEWIGSIYYSGSIYYNPSLKSRVTISVDTSKNQFSLKLSSVTAADTAVYYCASWFGEFLKADAFDIWGQGTMVTVSS
VL: QSALTQPASVSGSPGQSITISCTGTSSDVGGYSYVSWYQQHPGKAPKLMIYDVSKRPSGVSNRFSGSKSGNTASLTISGLQAEDEADYYCCSYAGGSTFVVFGGGTKLTVL
PV neutralization % (Ab 1 ug/mL) [2]: 98%
